Blank lines part the entries; values can stand above or below the binder they belong to.
Experiments:
[1] = target: T1, HER3 on human tumour cells (human, UniProt P21860 20-1342); assay: flow cytometry on MALME-3M cells, fluorochrome-labelled secondary antibody
T1 construct: whole, on cells; also called ErbB3
Experimental: (§1) The FACS analysis was carried out as described below.
(§2) Cells were washed with PBS and resuspended in DMEM containing 10% FBS at 1×10⁵ cells/100 μl. 100 μl cell suspension was added into each microcentrifuge tube, followed by 10 μl/tube of the antibody variants. The tubes were incubated for 2 hr 4° C. on a rotator. The microcentrifuge tubes were centrifuged for 2 min 2000 RPM at room temperature and the cell pellets washed with 500 μl media. Each cell pellet was resuspended 100 μl of fluorochrome-labelled secondary antibody diluted in media to 2 μg/sample. The samples were then incubated for 1 hr at 4° C. on a rotator. After incubation, the cells were centrifuged for 2 min at 2000 RPM and washed in media. The cells were resuspended in 500 μl media, filtered in tube containing 5 μl propidium iodide (PI) and analyzed on a BD™ LSRII flow cytometer according to the manufacturer's instructions.

[2] = target: T2, HER2 and HER3 co-expressed on human tumour cells (human, UniProt P04626 23-1255; P21860 20-1342); assay: cell-based or functional assay
[3] = target: T2, HER2 and HER3 co-expressed on human …; assay: flow cytometry on MALME-3M cells, fluorochrome-labelled secondary antibody
Experimental: as §1, §2

binding result [1]: binds
B1: v877 (monospecific bivalent antibody with two identical HER3-binding scFvs connected to a homodimeric Fc) (antibody, V domains shown)
VH: QVQLQESGGGLVKPGGSLRLSCAASGFTFSSYWMSWVRQAPGKGLEWVANINRDGSASYYVDSVKGRFTISRDDAKNSLYLQMNSLRAEDTAVYYCARDRGVGYFDLWGRGTLVTVSS
VL: QSALTQPASVSGSPGQSITISCTGTSSDVGGYNFVSWYQQHPGKAPKLMIYDVSDRPSGVSDRFSGSKSGNTASLIISGLQADDEADYYCSSYGSSSTHVIFGGGTKVTVL
notes: also called variant 877; monospecific bivalent control for HER3

EC50 (read off the curve) [3]: ~10 nM
B2: Variant 880 (bi-specific anti-HER2-HER3 antibody; B1D2 scFv on chain A, H3 scFv on chain B, heterodimeric Fc) (bispecific antibody)
scFv-Fc A: QVQLVQSGAEVKKPGESLKISCKGSGYSFTSYWIAWVRQMPGKGLEYMGLIYPGDSDTKYSPSFQGQVTISVDKSVSTAYLQWSSLKPSDSAVYFCARHDVGYCTDRTCAKWPEWLGVWGQGTLVTVSSGGGGSSGGGSGGGGSQSVLTQPPSVSAAPGQKVTISCSGSSSNIGNNYVSWYQQLPGTAPKLLIYDHTNRPAGVPDRFSGSKSGTSASLAISGFRSEDEADYYCASWDYTLSGWVFGGGTKLTVLGAAEPKSSDKTHTCPPCPAPELLGGPSVFLFPPKPKDTLMISRTPEVTCVVVDVSHEDPEVKFNWYVDGVEVHNAKTKPREEQYNSTYRVVSVLTVLHQDWLNGKEYKCKVSNKALPAPIEKTISKAKGQPREPQVYTYPPSRDELTKNQVSLTCLVKGFYPSDIAVEWESNGQPENNYKTTPPVLDSDGSFALVSKLTVDKSRWQQGNVFSCSVMHEALHNHYTQKSLSLSPGK
scFv-Fc B: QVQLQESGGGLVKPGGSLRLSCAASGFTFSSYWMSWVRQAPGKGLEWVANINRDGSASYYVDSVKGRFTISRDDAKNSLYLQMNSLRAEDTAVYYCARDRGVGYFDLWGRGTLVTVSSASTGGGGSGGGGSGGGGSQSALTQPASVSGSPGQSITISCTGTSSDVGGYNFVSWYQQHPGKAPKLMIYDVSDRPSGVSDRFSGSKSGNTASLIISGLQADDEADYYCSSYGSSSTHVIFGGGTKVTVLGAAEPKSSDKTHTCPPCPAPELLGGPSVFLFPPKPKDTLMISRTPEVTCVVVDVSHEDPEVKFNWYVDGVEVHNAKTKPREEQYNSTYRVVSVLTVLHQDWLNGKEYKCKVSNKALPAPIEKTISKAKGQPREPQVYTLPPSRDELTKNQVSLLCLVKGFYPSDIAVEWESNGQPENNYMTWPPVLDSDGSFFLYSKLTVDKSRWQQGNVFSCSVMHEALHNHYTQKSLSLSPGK
notes: also called v880; bsAb variant 880
BT-474 cell viability relative to untreated cells (Sulforhodamine B, 6 days, no heregulin) [2]: 36 % increase
